Patent US20220017636A1 (Amgen, published 2022)
Changes are numbered by the printed parent chain.

B1: 18182-B5 (scFv)
scFv: EVQLLESGGGLVQPGGSLRLSCAASGFTFSSHAMSWVRQAPGKGLEWVSAISGSGGGTYYADSVKGRFTISRDNSKNTLYLQMNSLRAEDTAVYYCATGKGVHLGFDYWGQGTLVTVSSGGGGSGGGGSGGGGSELVLTQPPSVSVAPGQTARITCGGNNIGSKSVHWYQQKPGQAPVLVVYDDNDRPSGIPERFSGSNFGNTATLIISRVEAGDEADYYCQVWDSSSDHVVFGGGTKLTVL
notes: scFv in bacterial lysate, detected with anti-Flag M2
B2: 18182-B12 (scFv)
scFv: B1 scFv with H32Y, N84S, Y169H, F200S, I207T, S226Y
notes: as for B1
B3: 18182-H12 (scFv)
scFv: B1 scFv with H32Y, A50T, V137M, P142H
notes: as for B1
B4: 18182-G2 (scFv)
scFv: B1 scFv with Y60N, V93A, A97V, L179M, F200S, I207T, V232I
notes: as for B1
B5: 18182-G8 (scFv)
scFv: B1 scFv with Q13K, H32Y, S35N, V64G, G105N, L179M, F200S, I207T
notes: as for B1
B6: 18182-A4 (scFv)
scFv: B1 scFv with L11V, G16R, H32Y, S35T, K43Q, A50S, D62A, E212A
notes: as for B1
B7: 18182-E6 (scFv)
scFv: B1 scFv with H32Y, G105N, P142S, E212A
notes: as for B1
B8: 18182-E10 (scFv)
scFv: EVQLLESGGGLVQPGGSLRLSCAASGFTFSSHAMSWVRQAPGQGLEWVSSISGSGGGTYYAASVKGRFTISRDNSKNTLYLQMNSLRAEDTAVYYCATGKGVHLNFDYWGQGTLVTVSSGGGGSGGGGSGGGGSELALTQPASASVAPGQTARITCGGNNIGSKSVHWHQQKPGQAPVLVVYDDNDRPSGIPERFSGSNSGNTATLTISRVEAGDEADFYCQVWDSSSDHVVFGGGTKLTVL
notes: as for B1
B9: 18182-E5 (scFv)
scFv: B1 scFv with H32Y, A50T, Y169H, F200S, I207T, S226Y
notes: as for B1
B10: 18182-H9 (scFv)
scFv: B1 scFv with G66A, Y169H, F200S, I207T, Y219F
notes: as for B1
B11: 18182-G6 (scFv)
scFv: B1 scFv with H32Y, V93A, A97V, Y169H, A176S, V181I, S198F, F200S, I207T
notes: as for B1
B12: 18182-E1 (scFv)
scFv: B1 scFv with Y60N, V93A, A97V, L179M, F200S, I207T
notes: as for B1
B13: 18089-D12 (scFv)
scFv: EVQLLESGGGVVQPGRSLRLSCAASGFTFSTYGMHWVRQAPGKGLEWVAVISYDGSNKYYADSVKGRFTISRDDSKNTLYLQMNSLRAEDTAVYYCARGQLLTGYWGQGTLVTVSSGGGGSGGGGSGGGGSELVMTQSPSSLSASVGDRVTITCRASQGISNYLAWYQQKPGKVPKLLIYAASTLQSGVPSRFSGSGSGTDFTLTISSLQPEDVATYYCQKYNSAPFTFGPGTKVEIK
notes: as for B1
B14: 18179-G12 (scFv)
scFv: EVQLLESGAEVKKPGASVKVSCKASGYTFTRNGLSWVRQAPGQGLEWMGWISGYNGDTNYAQKLQGRGTMTTDTSTSTAYMELRSLRSDDTAVYYCARGRATFDYWGQGTLVTVSSGGGGSGGGGSGGGGSELVMTQSPSSLSASVGDRVTITCRASQGISNYLAWYQQKPGKVPKLLISAASTLQSGVPSRFSGSGSGTDFTLTISSLQPEDVATYYCQKYNSAPFTFGPGTKLEIK
notes: as for B1
B15: 18179-C1 (scFv)
scFv: B14 scFv with L235V, E236D
notes: as for B1

How the values were obtained:
Experiment in all cases: flow cytometry, peptide-loaded T2 cells;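 note: binding of single-chain Fv antibody constructs, raised in XenoMouse, to peptide-pulsed T2 cells measured by flow cytometry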
[1] = molecular target: T1, KEA peptide complexed with HLA-A*02:01 on T2 cells (human)
T1 construct: whole, on cells
Procedure: (§1) Binding of pMAGE-HLA scFv constructs, generated from the XenoMouse, on peptide loaded T2 cells was evaluated by flow cytometry.

[2] = molecular target: T2, MYOF peptide complexed with HLA-A*02:01 on T2 cells (human)
T2 construct: whole, on cells
Procedure: as §1

[3] = molecular target: T3, STXBP5 peptide complexed with HLA-A*02:01 on T2 cells (human)
T3 construct: whole, on cells
Procedure: as §1

[4] = molecular target: T4, COX14 peptide complexed with HLA-A*02:01 on T2 cells (human)
T4 construct: whole, on cells
Procedure: as §1

[5] = molecular target: T5, DPYSL4 peptide complexed with HLA-A*02:01 on T2 cells (human)
T5 construct: whole, on cells
Procedure: as §1

[6] = molecular target: T6, MAGEB2 peptide … (SEQ ID NO: 1) complexed with HLA-A*02:01 on the cell surface (human)
T6 construct: whole, on cells; also called pMAGE-HLA; MAGEB2 pMHC
Procedure: as §1

[7] = molecular target: T7, ADF peptide complexed with HLA-A*02:01 on T2 cells (human)
T7 construct: whole, on cells
Procedure: as §1

[8] = molecular target: T8, MB peptide complexed with HLA-A*02:01 on T2 cells (human)
T8 construct: whole, on cells
Procedure: as §1

[9] = molecular target: T9, CNDP2 peptide complexed with HLA-A*02:01 on T2 cells (human)
T9 construct: whole, on cells; also called CNPD2
Procedure: as §1

[10] = molecular target: T10, SLK peptide complexed with HLA-A*02:01 on T2 cells (human)
T10 construct: whole, on cells
Procedure: as §1

Row | Binder | Signal/background [1] | Signal/background [2] | Signal/background [3] | Signal/background [4] | Signal/background [5] | Signal/background [6] | Signal/background [7] | Signal/background [8] | Signal/background [9] | Signal/background [10]
1 | B1 | 0.9 | 1 | 1 | 1 | 1 | 560 | 0.9 | 1 | 1 | 1
2 | B2 | 0.9 | 0.8 | 0.9 | 1 | 1 | 208 | 1 | 0.8 | 0.8 | 0.9
3 | B3 | 0.9 | 1.2 | 1 | 1.1 | 1 | 298 | 1 | 1.2 | 1 | 1
4 | B4 | 0.9 | 1 | 0.9 | 0.9 | 1.1 | 320 | 1 | 1 | 1 | 1
5 | B5 | 0.9 | 1 | 1 | 0.9 | 1 | 289 | 1 | 1.1 | 0.9 | 1.1
6 | B6 | 0.9 | 1 | 0.8 | 0.9 | 1 | 202 | 1.1 | 1 | 0.8 | 1
7 | B7 | 0.9 | 1 | 0.9 | 1 | 0.9 | 431 | 1 | 0.9 | 1 | 1
8 | B8 | 0.8 | 0.9 | 0.8 | 0.9 | 0.9 | 273 | 0.9 | 0.9 | 0.8 | 1
9 | B9 | 0.9 | 0.9 | 0.8 | 0.9 | 1 | 205 | 1 | 0.9 | 0.8 | 1
10 | B10 | 1 | 1.1 | 1.1 | 0.9 | 1.1 | 481 | 1 | 1 | 1 | 1.2
11 | B11 | 1 | 1 | 1 | 1 | 1 | 365 | 1 | 1 | 1 | 1
12 | B12 | 0.9 | 0.9 | 1 | 0.8 | 0.9 | 193 | 1 | 0.9 | 0.9 | 1
13 | B13 | 1 | 1.1 | 1 | 1.1 | 1.1 | 176 | 1.1 | 1.1 | 1 | 1.3
14 | B14 | 0.9 | 0.9 | 0.9 | 1.2 | 1.1 | 42 | 1.1 | 0.9 | 0.8 | 1.1
15 | B15 | 1 | 0.9 | 0.9 | 1 | 1 | 43 | 1.3 | 1 | 0.8 | 1
